Patent US20220381787A1, “NOVEL LOX-1 ANTIBODY COMPOSITIONS, LOX1 NEUTRALIZATION ASSAY AND METHODS OF TREATMENT USING SAME” (The Wistar Institute of Anatomy and Biology, priority 2019, published 2022)

B1: anti-Lox1 (IgG1) (6A10): recombinant antibody, clone 6A10 sequence in IgG1 framework, expressed in Expi293F cells (antibody, V domains shown)
VH: EVQLQQSGPELVKPGASVKISCKASGYSFTGYYMHWVKQSHVKSLEWIGRINPYNGATSYNQNFKDKASLTVDKSSSTAYMELHSLTSEDSAVYYCAPDVAYWGQGTLVTVSA
VL: DIKMTQSPSSMYASLGERVTITCKASQDINSYLSWFQQKPGKSPKTLIYRANRLVDGVPSRFSGSGSGQDYSLTISSLEYEDMGIYYCLQYDEFPPWTFGGGTKLEIK
B2: 12D9: mouse monoclonal anti-human LOX-1 antibody, VH SEQ ID NO: 11, VL SEQ ID NO: 13 (antibody, V domains shown)
VH: MAWVWTLLFLMAAAQSAQAQIQLVQSGPELKKPGETVKISCKASGYTFTNYGMNWVKQTPGKGLKWMGWINTYTGEPTYTDDFKGRFAFSLETSASTASLQIINLKNEDTATYFCARGGDFYAMDYWGQGTSVTVSS
VL: MESQTLVFISILLWLYGADGNIVMTQSPKSMSMSVGERVTLSCKASENVGTYVSWYQQKPEQSPKLVIFGASNRNTGVPDRFTGSGFATDFTLTISSVQAEDLGDYHCGQSSNYPYTFGGGTKLEIK
modifications: Amino acid sequence of variable region of the 12D9 heavy chain.; (1)..(19) signal; (20)..(49) FR1; (50)..(54) CDR1; (55)..(68) FR2; (86)..(117) FR3; (118)..(126) CDR3; (127)..(137) FR4; Amino acid sequence of variable region of the 12D9 light chain.; (1)..(20) signal; (21)..(43) FR1; (44)..(54) CDR1; (55)..(69) FR2; (70)..(76) CDR2; (77)..(108) FR3; (109)..(117) CDR3; (118)..(127) FR4
B3: 6A10: mouse monoclonal anti-human LOX-1 antibody, VH SEQ ID NO: 3, VL SEQ ID NO: 5 (antibody, V domains shown)
VH: MGWSWIFLFLLSGTAGVLSEVQLQQSGPELVKPGASVKISCKASGYSFTGYYMHWVKQSHVKSLEWIGRINPYNGATSYNQNFKDKASLTVDKSSSTAYMELHSLTSEDSAVYYCAPDVAYWGQGTLVTVSA
VL: MRTPAQFLGILLLWFPGIKCDIKMTQSPSSMYASLGERVTITCKASQDINSYLSWFQQKPGKSPKTLIYRANRLVDGVPSRFSGSGSGQDYSLTISSLEYEDMGIYYCLQYDEFPPWTFGGGTKLEIK
modifications: Amino acid sequence of variable region of the 6A10 heavy chain.; SIGNAL (1)..(19) signal seqeunce; (20)..(49) FR1; (50)..(54) CDR1; (55)..(68) FR2; (69)..(85) CDR2; (86)..(117) FR3; (118)..(121) CDR3; (122)..(132) FR4; Amino acid sequence of variable region of the 6A10 light chain.; SIGNAL (1)..(20) signal seqeunce; (21)..(43) FR1; (44)..(54) CDR1; (55)..(69) FR2; (70)..(76) CDR2; (77)..(108) FR3; (109)..(118) CDR3; (119)..(128) FR4
B4: 3D8: mouse monoclonal anti-human LOX-1 antibody, VH SEQ ID NO: 25, VL SEQ ID NO: 27 (antibody, V domains shown)
VH: MEWSWIFLFLLSGTAGVHSEVQLQQSGPELVKPGASVKMSCKASGYTFTSYVMHWVKQKPGQGLEWIGYINPYNDGTKYNEKFKGKATLTSDKSSSTAYMELSSLTSEDSAVYYCARGVYDGYPDYWGQGTTLTVSS
VL: MVSTSQLLGLLLFWTSASRCDIVMTQSPATLSVTPGDRVSLSCRASQSISDYLHWYQQKSHESPRLLIKYASQSISGIPSRFSGSGSGSDFTLSINSVEPEDVGVYYCQNGHSFPYTFGGGTKLEIK
modifications: Amino acid sequence of variable region of the 3D8 heavy chain.; (1)..(19) Signal; (20)..(49) FR1; (50)..(54) C DR1; (55)..(68) FR2; (69)..(85) CDR2; (86)..(117) FR3; (118)..(126) CDR3; (127)..(137) FR4; Amino acid sequence of variable region of the 3D8 light chain.; (1)..(20) signal; (21)..(43) FR1; (44)..(54) CDR1; (55)..(69) FR2; (70)..(76) CDR2; (77)..(108) FR3; (109)..(117) CDR3; (118)..(127) FR4
B5: 12E4: mouse monoclonal anti-human LOX-1 antibody, VH SEQ ID NO: 15, VL SEQ ID NO: 17 (antibody, V domains shown)
VH: MGWSWIFLFLLSGTAGVHSEVQLQQSGPELVKPGASMKISCKASGYSFTGYTMNWVKQSHGKNLEWIGLINPYNGGTSYNQKFKGKATLTVDKSSSTAYMELLSLTSEDSAVYYCARGGFYAMDYWGQGTSVTVSS
VL: MSSAQFLGLLLLCFQGTRCDIQMTQTTSSLSASLGDRVTISCSASQGISNYLNWYQQKPDGTVKLLIYYTSSLHSGVPSRFSGSGSGTDYSLTISNLEPEDIATYYCQQYSKLPYTFGGGTKLEIK
modifications: Amino acid sequence of variable region of the 12E4 heavy chain.; (1)..(19) signal; (20)..(49) FR1; (50)..(54) CDR1; (55)..(68) FR2; (69)..(85) CDR2; (86)..(117) FR3; (118)..(125) CDR3; (126)..(136) FR4; Amino acid sequence of variable region of the 12E4 light chain.; (20)..(42) FR1; (43)..(53) CDR1; (54)..(68) FR2; (69)..(75) CDR2; (76)..(107) FR3; (108)..(116) CDR3; (117)..(126) FR4

What was measured:
[1] = test system: CD11c+, CD14+, CD19+ and CD3+ cells in PBMCs; assay: flow cytometry of PBMCs from healthy donors; type: cell-based, human
Procedure: (§1) FIG. 8A is a flow cytometric histogram showing fluorescent intensity of cells incubated with recombinantly expressed anti-LOX-1 (IgG1) on the plasmid hLOX-1 transfected cells. Anti-hLOX-1/DNA transfected cells were stained with 1 μg/ml of anti-Lox1 (IgG1) (6A10) antibody plus FITC-labelled goat anti-human IgG secondary antibody. […] FIG. 8B show flow cytometry analysis of PBMCs from whole blood. Flow cytometry analysis of anti-hLOX-1 binding to CD11c^+, CD14^+, CD19^+ and CD3^+ cells in PBMCs from healthy donors. Flow cytometric analyses of anti-CD3, CD4, CD14, CD19 and anti-Lox1 monoclonal antibodies were used to detect their lineage specificity.

[2] = target: T1, LOX-1 antigen present on the cell surface of 293T cells (Homo sapiens, UniProt P78380); assay: flow cytometry on hLOX-1 plasmid transfected 293T cells; type: cell-based; conditions: 1 μg/ml antibody
T1 construct: expressed in transfected cells; host or cells: 293T cells
Procedure: as §1

[3] = target: T2, recombinant full length hLOX1 protein (Homo sapiens, UniProt P78380); assay: Western blot against native and denatured full-length recombinant hLOX1; type: binding; conditions: for binding to denatured LOX-1: denatured condition; for binding to native LOX-1: native condition
T2 construct: The hLOX1 immunogen was cloned into pET30a Escherichia coli expression vector and produced; His tag; made in house; host or cells: Escherichia coli (pET30a)
Excerpt: FIGS. 5A and 5B provide a series of gels showing the binding and specificity of anti-LOX-1 mAbs to target protein analyzed by Western blot analysis. In each figure, the first row of gels was loaded with denatured LOX-1, while the second row of gels was loaded with native LOX-1, as indicated in Example. The clone numbers of the anti-LOX-1 antibodies are listed below the gels.
Immunological reactivity of hLox-1 antibodies was characterized by Western blot analysis against native and denatured full-length recombinant proteins. Protein samples were electrophoretically separated under native or denaturing conditions on SDS-PAGE, performed using Novex gels with reagents as followed: 4-10% mini-gel, 10× Native-PAGE running buffer and 2× Native-PAGE: sample buffer. Denatured protein was heated in a heat block for 10 minutes at 57° C. Two micrograms (2 μg) of recombinant full length hLOX1 protein or non-specific POWV-Env viral protein was loaded to each well along with a protein size marker as a ladder. Gels were run at 150 V for 1 hour in a running buffer. Protein was transferred to a nitrocellulose membrane using the iBlot 2 Gel Transfer Device (Life Technologies). Membranes were blocked in Odyssey blocking buffer (Licor) for 1 hour at room temperature. Indicated hybridomas were diluted 1:250 in 0.5× Odyssey blocking buffer with 0.1% Tween-20 (BioRad) and incubated with the membranes overnight at 4° C. Membranes were washed and then incubated with the appropriate secondary antibody (goat anti-mouse IRDye680RD) for hybridoma samples for 1 hour at room temperature. After washing with PBST 5 times, membranes were imaged on the Odyssey infrared imager.

[4] = target: T3, recombinant human LOX-1 protein (Homo sapiens, UniProt P78380); assay: IgG avidity test, modified ELISA with 4M urea washes; type: binding; conditions: for avidity: 4M urea ELISA; for strength of binding to hLOX-1 recombinant protein: 4M urea washes, rank order 6A10=12D9>12E4>4D6
T3 construct: The hLOX1 immunogen was cloned into pET30a Escherichia coli expression vector and produced; His tag; made in house; host or cells: Escherichia coli (pET30a)
Procedure: Anti-hLOX-1 mAbs samples were tested for anti-hLOX-1-specific binding to recombinant antigen using a modified ELISA and avidity determined by 4M urea washes against recombinant human LOX-1 protein.
Anti-LOX-1 mAbs samples were tested for anti-LOX-1-specific binding to recombinant antigen using a modified ELISA and avidity determined by 4M urea washes against recombinant human LOX-1 protein. […] Overall out of 16 clones identified, 6 were stronger binders, and 4 were high binders in rank order of strength of binding 6A 10=12D9>12E4>4D6.
Microtiter plates previously coated with recombinant Lox-1 antigens were washed 3 times with PBS plus 0.05% tween 20 (PBST). Hybridomas 1B6, 2A10, 3D8, 3E6, 4D6, 5C2, 5F5, 6A10, 8E7, 9E12, 10H11, 11A6, 12D9, 11C5, 12A10, 12E4, 14A12, and 12G6 samples were diluted as indicated and added (100 μl/well). The avidity of antibodies against hLOX-1 protein was determined by a particle disruption ELISA using 4M Urea. The binding of hLOX1 protein and incubation with mAbs were performed followed by a 5-minute incubation with urea after washing five times with 0.05% PBST. Control (urea-untreated) wells were treated with PBS during the 5-minute incubation. The anti-human IgG conjugated with horseradish peroxidase (HRP) was added with the dilution of 1/5000 in PBS for 1 hour. Afterwards, the plate is washed 5 times, and 100 μl of 3,3′5,5′-Tetramethylbenzidine (TMB) Substrate (Sigma-Aldrich, USA) is added to each well for 10 minutes before the reaction being stopped with 2M H2SO4 solution. The plate is read at 450 nm by Biotek ELISA plate reader.

Row | Molecule | binding to CD3+ cells in PBMCs [1] | binding to immune subset cells in PBMCs ([1]; CD11c+, CD14+, CD19+ cells) | binding to non-transfected cells [2] | binding to hLOX-1 transfected cells ([2]; FITC-labelled goat anti-human IgG secondary) | binding to denatured LOX-1 [3] | binding to native LOX-1 [3] | avidity [4] | strength of binding to hLOX-1 recombinant protein [4]
1 | B1 | not to CD3^+ cells | binds to immune subset cells | no binding above background to non-transfected cells | Specific binding to cells transfected with LOX-1 antigen | – | – | – | –
2 | B2 | – | – | – | – | not denatured LOX-1 (or binding to denatured LOX-1 at a significantly lower level) | demonstrate binding to native LOX-1 | strong avidity | high binders
3 | B3 | – | – | – | – | not denatured LOX-1 (or binding to denatured LOX-1 at a significantly lower level) | demonstrate binding to native LOX-1 | strong avidity | high binders
4 | B4 | – | – | – | – | not denatured LOX-1 (or binding to denatured LOX-1 at a significantly lower level) | demonstrate binding to native LOX-1 | – | –
5 | B5 | – | – | – | – | not denatured LOX-1 (or binding to denatured LOX-1 at a significantly lower level) | demonstrate binding to native LOX-1 | – | high binders
